Source: the supplement of paper PMC9112550, “Optimization of the antimicrobial peptide Bac7 by deep mutational scanning” (BMC Biology, 2022)

Tested on: Escherichia coli TOP10
Experiment: shrunken log2 fold change of peptide-encoding DNA abundance (4.5 h post-induction vs induction); higher = less antimicrobial activity (less host growth inhibition)
Conditions: time post-induction: 4.5 h; library: site-saturation at positions 5, 18, 19, 20
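Note: peptides expressed intracellularly from a pBAD plasmid library in pooled LB shake-flask culture, induced with 0.3% L-arabinose, DNA abundance read by NGS, three biological replicates, DESeq2 with apeglm shrinkage.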

Row | Sequence | shrunken log2 fold change
1 | RRIRCRPPRLPRPRPRPTDTPRP | -0.438
2 | RRIRQRPPRLPRPRPRPDMWPRP | 0.0275
3 | RRIRLRPPRLPRPRPRPMVCPRP | -0.0634
4 | RRIRLRPPRLPRPRPRPVYQPRP | -0.0597
5 | RRIRYRPPRLPRPRPRPDCRPRP | -0.363
6 | RRIRARPPRLPRPRPRPPLRPRP | 1.63
7 | RRIRFRPPRLPRPRPRPDNCPRP | -0.0284
8 | RRIRSRPPRLPRPRPRPIIYPRP | -0.182
9 | RRIRARPPRLPRPRPRPNITPRP | -0.0796
10 | RRIRARPPRLPRPRPRPHDYPRP | 0.141
11 | RRIRSRPPRLPRPRPRPSYMPRP | -1.1
12 | RRIRVRPPRLPRPRPRPNYRPRP | 0.0968
13 | RRIRARPPRLPRPRPRPWWTPRP | 0.239
14 | RRIRTRPPRLPRPRPRPDSPPRP | -0.549
15 | RRIRARPPRLPRPRPRPDPEPRP | 0.939
16 | RRIRWRPPRLPRPRPRPYSEPRP | -0.0145
17 | RRIRTRPPRLPRPRPRPSGCPRP | -0.375
18 | RRIRYRPPRLPRPRPRPFAWPRP | -0.0365
19 | RRIRWRPPRLPRPRPRPTAKPRP | 0.0717
20 | RRIRTRPPRLPRPRPRPARVPRP | 0.195
21 | RRIRQRPPRLPRPRPRPLQMPRP | 0.122
22 | RRIRARPPRLPRPRPRPPSSPRP | 0.342
23 | RRIRSRPPRLPRPRPRPPNNPRP | -0.404

Row | Sequence | shrunken log2 fold change
24 | RRIRVRPPRLPRPRPRPEYIPRP | -0.00622
25 | RRIRKRPPRLPRPRPRPRTEPRP | 1.04
26 | RRIRIRPPRLPRPRPRPIFDPRP | -0.237
27 | RRIRDRPPRLPRPRPRPPQTPRP | 0.115
28 | RRIRRRPPRLPRPRPRPTDRPRP | 0.194
29 | RRIRGRPPRLPRPRPRPGHEPRP | 0.202
30 | RRIRIRPPRLPRPRPRPFQWPRP | -0.192
31 | RRIRWRPPRLPRPRPRPVIYPRP | -0.279
32 | RRIRIRPPRLPRPRPRPCCAPRP | -0.172
33 | RRIRWRPPRLPRPRPRPESCPRP | 0.261
34 | RRIRCRPPRLPRPRPRPKEGPRP | 0.201
35 | RRIRARPPRLPRPRPRPMRVPRP | 0.789
36 | RRIRCRPPRLPRPRPRPRTHPRP | -0.168
37 | RRIRLRPPRLPRPRPRPRIWPRP | 0.394
38 | RRIRLRPPRLPRPRPRPNTVPRP | -0.0627
39 | RRIRVRPPRLPRPRPRPMWVPRP | 0.0736
40 | RRIRSRPPRLPRPRPRPMSAPRP | 0.202
41 | RRIRIRPPRLPRPRPRPTPYPRP | -0.44
42 | RRIRQRPPRLPRPRPRPWRPPRP | 0.143
43 | RRIRIRPPRLPRPRPRPEGKPRP | -0.0199
44 | RRIRHRPPRLPRPRPRPHARPRP | 0.0947
45 | RRIRIRPPRLPRPRPRPGDKPRP | -0.218
46 | RRIRERPPRLPRPRPRPEWVPRP | 0.241

Row | Sequence | shrunken log2 fold change
47 | RRIRTRPPRLPRPRPRPMMNPRP | 0.0667
48 | RRIRNRPPRLPRPRPRPNPNPRP | 0.0656
49 | RRIRPRPPRLPRPRPRPDRNPRP | -0.0925
50 | RRIRQRPPRLPRPRPRPCFIPRP | -0.353
51 | RRIRRRPPRLPRPRPRPWLMPRP | -0.185
52 | RRIRLRPPRLPRPRPRPSVQPRP | -0.57
53 | RRIRMRPPRLPRPRPRPHIVPRP | 0.0532
54 | RRIRCRPPRLPRPRPRPGMQPRP | -0.255
55 | RRIRVRPPRLPRPRPRPHHPPRP | -0.131
56 | RRIRKRPPRLPRPRPRPWYNPRP | -0.00192
57 | RRIRTRPPRLPRPRPRPYLDPRP | -0.381
58 | RRIRERPPRLPRPRPRPQDNPRP | -0.0327
59 | RRIRIRPPRLPRPRPRPFLGPRP | 0.00585
60 | RRIRARPPRLPRPRPRPWLNPRP | -0.175
61 | RRIRDRPPRLPRPRPRPEGRPRP | 0.517
62 | RRIRCRPPRLPRPRPRPMFHPRP | -0.723
63 | RRIRCRPPRLPRPRPRPIKYPRP | -0.608
64 | RRIRARPPRLPRPRPRPDSIPRP | -0.0582
65 | RRIRERPPRLPRPRPRPRWNPRP | -0.0995
66 | RRIRLRPPRLPRPRPRPIQWPRP | 0.146
67 | RRIRIRPPRLPRPRPRPCYWPRP | -0.131
68 | RRIRNRPPRLPRPRPRPDISPRP | 0.000389
69 | RRIRIRPPRLPRPRPRPVFTPRP | -0.305

Row | Sequence | shrunken log2 fold change
70 | RRIRERPPRLPRPRPRPVLAPRP | 0.252
71 | RRIRSRPPRLPRPRPRPTGYPRP | 0.0189
72 | RRIRTRPPRLPRPRPRPGYFPRP | -0.0719
73 | RRIRERPPRLPRPRPRPRYIPRP | -0.208
74 | RRIRPRPPRLPRPRPRPENTPRP | 0.11
75 | RRIRMRPPRLPRPRPRPFIQPRP | 0.0137
76 | RRIRPRPPRLPRPRPRPVFKPRP | -0.189
77 | RRIRMRPPRLPRPRPRPMQRPRP | 0.556
78 | RRIRFRPPRLPRPRPRPICPPRP | -0.208
79 | RRIRHRPPRLPRPRPRPVWMPRP | -0.243
80 | RRIRHRPPRLPRPRPRPNYAPRP | 0.0414
81 | RRIRIRPPRLPRPRPRPMDAPRP | 0.0153
82 | RRIRRRPPRLPRPRPRPGQNPRP | 0.203
83 | RRIRWRPPRLPRPRPRPENDPRP | -0.0396
84 | RRIRCRPPRLPRPRPRPLWHPRP | -0.091
85 | RRIRCRPPRLPRPRPRPTNLPRP | -0.656
86 | RRIRCRPPRLPRPRPRPYEEPRP | -0.255
87 | RRIRVRPPRLPRPRPRPRGEPRP | 0.254
88 | RRIRKRPPRLPRPRPRPQIVPRP | 0.119
89 | RRIRHRPPRLPRPRPRPFDKPRP | -0.118
90 | RRIRCRPPRLPRPRPRPNSTPRP | -0.76
91 | RRIRFRPPRLPRPRPRPNRYPRP | -0.319
